Assay results taken from US20240261333A1 (published 2024).

How the values were obtained:
RPS23 = RPS23 (UniProt P62266 2-143); assay: co-IP, anti-FLAG, C-FLAG B3GNT2 cell lysate, mass spectrometry
Protocol: (§1) Cells were plated in 10-cm cell culture dishes and grown to 60-80% confluency. For each condition, two biological replicates were harvested for co-IP. Cells were washed with PBS and 4 mL of lysis buffer (20 mM HEPES, 1% Triton X-100, 150 mM NaCl, 1 mM EDTA, and 10% glycerol) containing protease inhibitor cocktail was added. Cells were scraped and lysate was incubated at 4° C. under rotary agitation for 1 h. Lysate was centrifuged at 14,000×g for 10 min at 4° C. Supernatant was transferred to a new tube and an aliquot was taken as the input. […] For Western blots, 10 μg/mL Chicken Anti-FLAG (Aves labs ET-DY100) and IgY control (R&D Systems AB-101-C) antibodies were biotinylated (Thermo Fisher Scientific 90407) and added to the respective conditions. Lysates with antibodies were incubated at 4° C. under rotary agitation overnight. For each mL of lysate, 50 μL of Pierce Protein A/G Magnetic Beads (Mass spectrometry; Thermo Fisher Scientific 88803) or Pierce Streptavidin Magnetic Beads (Western blot; Thermo Fisher Scientific 88817) was washed twice with lysis buffer. Lysates with antibodies were added to the beads and incubated at 4° C. under rotary agitation for 4 h. Beads were washed with lysis buffer 3 times and resuspended in lysis buffer for storage.
(§2) Magnetic beads were resuspended in 100 mM Tris pH 7.8, reduced, alkylated and digested with trypsin at 37° ° C. overnight. This solution was subjected to solid phase extraction to concentrate the peptides and remove unwanted reagents followed by injection onto a Shimadzu HPLC with fraction collector. Eight fractions were collected and after concentration were injected on a Waters NanoAcquity HPLC equipped with a self-packed Aeris 3 μm C18 analytical column 0.075 mm by 20 cm, (Phenomenex). Peptides were eluted using standard reverse-phase gradients. The effluent from the column was analyzed using a Thermo Orbitrap Elite mass spectrometer (nanospray configuration) operated in a data dependent manner for 54 minutes. The resulting fragmentation spectra were correlated against the known database using Proteome Discover 1.4 (Thermo Fisher Scientific).

RPS2 = RPS2 (UniProt P15880 2-293); assay: as above
Protocol: as §1, §2

RPS18 = RPS18 (UniProt P62269 2-152); assay: as above
Protocol: as §1, §2

TMEM59 = biological target: T1, TMEM59 (UniProt Q9BXS4 36-323, limits assumed); assay: as above
T1 construct: also called NP_001291972.1
T1 sequence (looked up): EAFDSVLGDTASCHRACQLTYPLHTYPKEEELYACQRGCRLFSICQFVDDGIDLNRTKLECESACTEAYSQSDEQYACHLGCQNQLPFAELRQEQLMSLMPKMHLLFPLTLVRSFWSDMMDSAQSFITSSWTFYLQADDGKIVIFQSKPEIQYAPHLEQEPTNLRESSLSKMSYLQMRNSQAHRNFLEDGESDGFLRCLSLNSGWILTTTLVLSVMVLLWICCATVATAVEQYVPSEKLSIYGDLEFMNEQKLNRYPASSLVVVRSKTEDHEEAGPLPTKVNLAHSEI
Protocol: as §1, §2

RPS13 = RPS13 (UniProt P62277 2-151); assay: as above
Protocol: as §1, §2

CDSN = biological target: T2, CDSN (UniProt Q15517 33-529, limits assumed); assay: as above
T2 construct: also called NP_001255.4
T2 sequence (looked up): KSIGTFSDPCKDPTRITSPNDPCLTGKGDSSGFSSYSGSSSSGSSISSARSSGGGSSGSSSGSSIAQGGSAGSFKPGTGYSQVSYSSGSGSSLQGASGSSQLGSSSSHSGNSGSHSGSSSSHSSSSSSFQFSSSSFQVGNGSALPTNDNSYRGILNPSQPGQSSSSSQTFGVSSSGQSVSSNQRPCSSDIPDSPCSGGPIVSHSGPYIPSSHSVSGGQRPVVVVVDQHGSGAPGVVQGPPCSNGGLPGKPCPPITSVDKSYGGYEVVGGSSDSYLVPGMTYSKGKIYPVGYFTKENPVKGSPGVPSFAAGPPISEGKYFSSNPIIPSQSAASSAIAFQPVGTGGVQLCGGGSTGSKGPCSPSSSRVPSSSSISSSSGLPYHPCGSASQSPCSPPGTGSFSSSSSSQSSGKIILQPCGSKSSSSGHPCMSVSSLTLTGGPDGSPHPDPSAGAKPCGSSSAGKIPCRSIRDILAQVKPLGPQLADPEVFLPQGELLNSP
Protocol: as §1, §2

EMD = biological target: T3, EMD (UniProt P50402 1-254); assay: as above
T3 construct: also called NP_000108.1
T3 sequence (looked up): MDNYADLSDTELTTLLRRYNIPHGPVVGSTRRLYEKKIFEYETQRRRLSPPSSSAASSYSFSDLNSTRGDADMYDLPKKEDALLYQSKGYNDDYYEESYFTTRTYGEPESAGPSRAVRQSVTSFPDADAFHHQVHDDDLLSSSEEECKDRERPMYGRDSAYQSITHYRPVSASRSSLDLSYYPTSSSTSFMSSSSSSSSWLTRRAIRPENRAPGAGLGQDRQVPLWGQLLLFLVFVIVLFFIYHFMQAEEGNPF
Protocol: as §1, §2

POF1B = biological target: T4, POF1B (UniProt Q8WVV4-1 1-595, limits assumed); assay: as above
T4 construct: also called NP_001294869.1 (+2)
T4 sequence (looked up): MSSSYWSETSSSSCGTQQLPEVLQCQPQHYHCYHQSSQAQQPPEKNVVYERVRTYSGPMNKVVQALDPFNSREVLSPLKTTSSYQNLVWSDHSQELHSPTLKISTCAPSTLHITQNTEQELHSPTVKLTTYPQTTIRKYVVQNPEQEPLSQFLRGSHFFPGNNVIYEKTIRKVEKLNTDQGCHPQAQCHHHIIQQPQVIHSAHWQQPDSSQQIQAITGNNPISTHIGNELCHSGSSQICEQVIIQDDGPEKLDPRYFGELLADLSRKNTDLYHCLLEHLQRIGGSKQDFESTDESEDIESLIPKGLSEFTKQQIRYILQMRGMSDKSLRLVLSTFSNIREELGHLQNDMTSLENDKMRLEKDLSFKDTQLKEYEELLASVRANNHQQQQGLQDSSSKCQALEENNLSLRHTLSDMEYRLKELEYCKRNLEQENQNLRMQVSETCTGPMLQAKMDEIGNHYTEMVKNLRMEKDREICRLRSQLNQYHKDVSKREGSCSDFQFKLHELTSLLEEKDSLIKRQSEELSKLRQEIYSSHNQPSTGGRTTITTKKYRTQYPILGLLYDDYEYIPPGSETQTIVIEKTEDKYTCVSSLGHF
Protocol: as §1, §2

CFL1 = biological target: T5, CFL1 (UniProt P23528 2-166); assay: as above
T5 construct: also called NP_005498.1
Protocol: as §1, §2

ARG1 = biological target: T6, ARG1 (UniProt P05089 1-322); assay: as above
T6 construct: also called NP_000036.2 (+1)
T6 sequence (looked up): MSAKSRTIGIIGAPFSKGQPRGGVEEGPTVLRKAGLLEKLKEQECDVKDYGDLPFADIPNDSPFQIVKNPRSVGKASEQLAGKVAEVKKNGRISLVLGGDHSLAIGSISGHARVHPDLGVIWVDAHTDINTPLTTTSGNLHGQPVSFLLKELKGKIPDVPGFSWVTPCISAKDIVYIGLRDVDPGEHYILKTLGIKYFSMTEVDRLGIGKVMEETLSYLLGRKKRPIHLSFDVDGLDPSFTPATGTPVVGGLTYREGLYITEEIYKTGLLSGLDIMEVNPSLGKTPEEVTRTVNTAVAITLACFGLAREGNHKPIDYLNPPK
Protocol: as §1, §2

DEFA3 = biological target: T7, DEFA3 (UniProt P59666 65-94, limits assumed); assay: as above
T7 construct: also called NP_005208.1 (+1)
Protocol: as §1, §2

S100A9 = biological target: T8, S100A9 (UniProt P06702 1-114); assay: co-IP with anti-FLAG, mass spectrometry; C-FLAG B3GNT2
T8 construct: Protein found in the co-IP by mass spectrometry; also called NP_002956.1
T8 sequence (looked up): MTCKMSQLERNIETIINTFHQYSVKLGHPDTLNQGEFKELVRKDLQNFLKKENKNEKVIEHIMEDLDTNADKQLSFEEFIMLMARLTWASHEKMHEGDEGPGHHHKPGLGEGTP
Protocol: as §1, §2

ENO1 = biological target: T9, ENO1 (UniProt P06733 2-434); assay: as above
T9 construct: Endogenous protein found in the co-IP by mass spectrometry; also called NP_001419.1
Protocol: as §1, §2

AHNAK = biological target: T10, AHNAK (UniProt Q09666 1-5890); assay: as above
T10 construct: Endogenous protein found in the co-IP by mass spectrometry; also called NP_001611.1
Protocol: as §1, §2

TRIM21 = biological target: T11, TRIM21 (UniProt P19474 1-475); assay: as above
T11 construct: Endogenous protein found in the co-IP by mass spectrometry; also called NP_003132.2
Protocol: as §1, §2

PPIA = biological target: T12, PPIA (UniProt P62937 2-165); assay: as above
T12 construct: Endogenous protein found in the co-IP by mass spectrometry; also called NP_066953.1
Protocol: as §1, §2

RPS17 = RPS17 (UniProt P08708 2-135); assay: as above
Protocol: as §1, §2

RPS11 = RPS11 (UniProt P62280 2-158); assay: as above
Protocol: as §1, §2

S100A8 = biological target: T13, S100A8 (UniProt P05109 1-93); assay: as above
T13 construct: Protein found in the co-IP by mass spectrometry; also called NP_002955.2
T13 sequence (looked up): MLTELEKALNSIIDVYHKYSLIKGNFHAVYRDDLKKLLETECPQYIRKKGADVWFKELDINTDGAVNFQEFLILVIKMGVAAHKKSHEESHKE
Protocol: as §1, §2

SPRR2E = biological target: T14, SPRR2E (UniProt P22531 1-72); assay: as above
T14 construct: Protein found in the co-IP by mass spectrometry; also called NP_001019380.2
T14 sequence (looked up): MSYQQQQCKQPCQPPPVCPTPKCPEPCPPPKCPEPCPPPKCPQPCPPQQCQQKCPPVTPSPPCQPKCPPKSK
Protocol: as §1, §2

T11 sequence (P19474 whole entry): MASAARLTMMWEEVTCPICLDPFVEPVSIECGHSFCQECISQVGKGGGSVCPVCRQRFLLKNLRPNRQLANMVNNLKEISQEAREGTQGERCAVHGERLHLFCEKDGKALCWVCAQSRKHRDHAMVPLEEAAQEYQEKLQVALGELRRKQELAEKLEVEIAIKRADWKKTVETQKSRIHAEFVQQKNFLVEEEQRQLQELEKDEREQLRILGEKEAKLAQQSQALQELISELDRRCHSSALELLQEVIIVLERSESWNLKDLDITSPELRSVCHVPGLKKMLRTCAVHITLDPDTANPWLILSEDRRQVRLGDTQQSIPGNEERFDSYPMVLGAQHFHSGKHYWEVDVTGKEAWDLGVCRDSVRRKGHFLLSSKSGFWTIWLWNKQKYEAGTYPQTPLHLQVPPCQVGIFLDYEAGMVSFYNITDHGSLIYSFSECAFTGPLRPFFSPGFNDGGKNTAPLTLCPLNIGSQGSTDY
T12 sequence (P62937 2-165 limits assumed): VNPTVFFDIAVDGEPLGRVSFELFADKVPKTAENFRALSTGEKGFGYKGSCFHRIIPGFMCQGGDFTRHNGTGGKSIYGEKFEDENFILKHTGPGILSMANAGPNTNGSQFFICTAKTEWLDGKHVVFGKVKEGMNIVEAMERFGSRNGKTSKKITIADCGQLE
T9 sequence (P06733 2-434 limits assumed): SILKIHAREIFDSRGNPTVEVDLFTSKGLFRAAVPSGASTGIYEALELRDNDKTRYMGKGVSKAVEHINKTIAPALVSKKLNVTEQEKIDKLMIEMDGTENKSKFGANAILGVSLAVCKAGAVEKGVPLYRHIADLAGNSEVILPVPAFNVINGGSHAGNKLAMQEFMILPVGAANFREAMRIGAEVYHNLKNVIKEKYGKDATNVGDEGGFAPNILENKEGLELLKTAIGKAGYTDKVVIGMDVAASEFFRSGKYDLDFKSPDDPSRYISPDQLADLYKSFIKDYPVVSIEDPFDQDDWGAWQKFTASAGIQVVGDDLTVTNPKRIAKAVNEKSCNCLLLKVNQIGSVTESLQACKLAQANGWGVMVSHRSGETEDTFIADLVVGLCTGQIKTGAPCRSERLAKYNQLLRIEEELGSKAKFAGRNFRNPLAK
T5 sequence (P23528 2-166 limits assumed): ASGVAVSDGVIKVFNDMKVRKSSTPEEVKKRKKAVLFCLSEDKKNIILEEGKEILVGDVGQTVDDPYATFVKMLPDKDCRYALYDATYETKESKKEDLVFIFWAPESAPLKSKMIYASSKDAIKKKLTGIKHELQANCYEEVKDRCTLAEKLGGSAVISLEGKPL
T7 sequence (P59666 65-94 limits assumed): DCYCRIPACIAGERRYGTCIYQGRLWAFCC

B1: C-terminal FLAG tagged B3GNT2 (enzyme, human, UniProt Q9NY97 1-397, looked up)
chain: MSVGRRRIKLLGILMMANVFIYFIMEVSKSSSQEKNGKGEVIIPKEKFWKISTPPEAYWNREQEKLNRQYNPILSMLTNQTGEAGRLSNISHLNYCEPDLRVTSVVTGFNNLPDRFKDFLLYLRCRNYSLLIDQPDKCAKKPFLLLAIKSLTPHFARRQAIRESWGQESNAGNQTVVRVFLLGQTPPEDNHPDLSDMLKFESEKHQDILMWNYRDTFFNLSLKEVLFLRWVSTSCPDTEFVFKGDDDVFVNTHHILNYLNSLSKTKAKDLFIGDVIHNAGPHRDKKLKYYIPEVVYSGLYPPYAGGGGFLYSGHLALRLYHITDQVHLYPIDDVYTGMCLQKLGLVPEKHKGFRTFDIEEKNKNNICSYVDLMLVHSRKPQEMIDIWSQLQSAHLKC
notes: Bait of the co-IP; pulled down with mouse anti-FLAG from cell lysate; also called C-FLAG B3GNT2; C-term flag; not shown: FLAG tag at the C-terminus
co-IP mass spectrometry count (RPS23): 16
co-IP mass spectrometry count (RPS2): 24
co-IP mass spectrometry count (RPS18): 18
co-IP mass spectrometry count (TMEM59): 0
co-IP mass spectrometry count (RPS13): 4
co-IP mass spectrometry count (CDSN): 0
co-IP mass spectrometry count (EMD): 2
co-IP mass spectrometry count (POF1B): 0
co-IP mass spectrometry count (CFL1): 6
co-IP mass spectrometry count (ARG1): 6
co-IP mass spectrometry count (DEFA3): 8

B2: C-terminal FLAG tagged B3GNT2 (enzyme, human, UniProt Q9NY97 1-397, looked up)
chain: MSVGRRRIKLLGILMMANVFIYFIMEVSKSSSQEKNGKGEVIIPKEKFWKISTPPEAYWNREQEKLNRQYNPILSMLTNQTGEAGRLSNISHLNYCEPDLRVTSVVTGFNNLPDRFKDFLLYLRCRNYSLLIDQPDKCAKKPFLLLAIKSLTPHFARRQAIRESWGQESNAGNQTVVRVFLLGQTPPEDNHPDLSDMLKFESEKHQDILMWNYRDTFFNLSLKEVLFLRWVSTSCPDTEFVFKGDDDVFVNTHHILNYLNSLSKTKAKDLFIGDVIHNAGPHRDKKLKYYIPEVVYSGLYPPYAGGGGFLYSGHLALRLYHITDQVHLYPIDDVYTGMCLQKLGLVPEKHKGFRTFDIEEKNKNNICSYVDLMLVHSRKPQEMIDIWSQLQSAHLKC
notes: FLAG-tagged ORF overexpressed in cells; bait of the anti-FLAG co-IP; also called C-FLAG B3GNT2; C-term flag; not shown: FLAG tag at the C-terminus
co-IP mass spectrometry count (S100A9): 9
co-IP mass spectrometry count (ENO1): 4
co-IP mass spectrometry count (AHNAK): 2
co-IP mass spectrometry count (TRIM21): 0
co-IP mass spectrometry count (PPIA): 0
co-IP mass spectrometry count (RPS17): 10
co-IP mass spectrometry count (RPS11): 18
co-IP mass spectrometry count (S100A8): 3
co-IP mass spectrometry count (SPRR2E): 0
